Article PMC13486833, “Engineered HMGB1 construct with tandem Box B domains promotes tissue regeneration without potential for inflammation” (iScience, 2026)

Target: T1, RAGE-Fc chimera protein (UniProt Q15109 23-342)
T1 construct: RAGE, recombinant Fc chimera BioTechne Cat# 1145-RG; As far as I recall the catalogue product is the human RAGE extracellular domain fused to human IgG1 Fc; source: bought: BioTechne
Assay: BLI; RAGE-Fc (15 μg/mL) immobilised on anti-IgG (AHC) biosensors; HMGB1 constructs 0–25 μM in solution; 200 s association/dissociation
Conditions: both partners purified

T1 sequence (Q15109 23-342, change not shown): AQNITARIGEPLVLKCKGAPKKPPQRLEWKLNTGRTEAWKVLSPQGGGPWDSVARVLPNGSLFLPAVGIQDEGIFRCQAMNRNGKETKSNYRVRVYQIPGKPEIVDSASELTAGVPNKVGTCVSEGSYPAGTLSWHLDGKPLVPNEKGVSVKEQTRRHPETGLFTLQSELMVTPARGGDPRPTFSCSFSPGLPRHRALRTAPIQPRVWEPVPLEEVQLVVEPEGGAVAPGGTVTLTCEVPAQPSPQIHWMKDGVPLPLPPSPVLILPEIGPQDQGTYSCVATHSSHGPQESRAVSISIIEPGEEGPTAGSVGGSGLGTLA

Kd: 5.5 µM
koff: 0.206 s⁻¹
B1: dBB12L (FR-HMGB1 89–174::89–174) (other)
chain: KDPNAPKRPPSAFFLFCSEYRPKIKGEHPGLSIGDVAKKLGEMWNNTAADDKQPYEKKAAKLKEKYEKDIAAYRAKGKPDAAKKGVKDPNAPKRPPSAFFLFCSEYRPKIKGEHPGLSIGDVAKKLGEMWNNTAADDKQPYEKKAAKLKEKYEKDIAAYRAKGKPDAAKKGV
modifications: fully reduced Cys105 (printed numbering) in both copies; printed n = entry n+1 (C22/C44/C105 = C23/C45/C106 in P09429); direct tandem fusion, with native flanks acting as the linker
